Reference: patent US20220332804A1 (CSL INNOVATION, published 2022)
Changes are numbered by the printed parent chain.

What was measured:
Test in all cases: SPR, KD relative to WT C2;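 further: biacore SPR at 37 °C, anti-C2 mAbs captured via immobilised goat anti-human IgG, C2 alanine or serine surface mutants as analytes, 1:1 model fitted, double-referenced sensograms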
human C2 L620A = target: T1, human C2 L620A (human, UniProt P06681 21-752)
T1 sequence: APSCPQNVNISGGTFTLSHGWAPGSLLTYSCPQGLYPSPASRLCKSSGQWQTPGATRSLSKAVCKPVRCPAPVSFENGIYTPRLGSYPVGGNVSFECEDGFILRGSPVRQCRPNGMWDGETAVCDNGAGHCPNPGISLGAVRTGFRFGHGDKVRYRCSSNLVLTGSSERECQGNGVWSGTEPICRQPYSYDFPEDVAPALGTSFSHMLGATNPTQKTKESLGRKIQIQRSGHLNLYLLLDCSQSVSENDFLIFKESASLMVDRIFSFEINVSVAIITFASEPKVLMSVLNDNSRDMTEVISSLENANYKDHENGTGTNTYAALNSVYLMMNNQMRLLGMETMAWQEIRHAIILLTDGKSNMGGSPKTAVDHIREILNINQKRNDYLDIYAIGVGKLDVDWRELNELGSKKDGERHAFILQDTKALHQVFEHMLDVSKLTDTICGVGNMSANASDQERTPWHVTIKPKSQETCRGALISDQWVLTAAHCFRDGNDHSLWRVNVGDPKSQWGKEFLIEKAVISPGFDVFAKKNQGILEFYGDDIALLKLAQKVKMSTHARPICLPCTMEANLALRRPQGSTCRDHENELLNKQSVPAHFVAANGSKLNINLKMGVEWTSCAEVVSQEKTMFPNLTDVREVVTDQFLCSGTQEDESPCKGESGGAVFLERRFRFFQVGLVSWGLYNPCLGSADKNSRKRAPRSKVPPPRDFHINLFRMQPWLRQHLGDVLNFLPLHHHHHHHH

human C2 D431A = target: T2, human C2 D431A (human, UniProt P06681 21-752)
T2 sequence: T1 sequence with D411A, A600L

human C2 N703A = target: T3, human C2 N703A (human, UniProt P06681 21-752)
T3 sequence: T1 sequence with A600L, N683A

human C2 Q489A = target: T4, human C2 Q489A (human, UniProt P06681 21-752)
T4 sequence: T1 sequence with Q469A, A600L

B1: RF16-226 (antibody, human IgG4 S228P, lambda)
heavy: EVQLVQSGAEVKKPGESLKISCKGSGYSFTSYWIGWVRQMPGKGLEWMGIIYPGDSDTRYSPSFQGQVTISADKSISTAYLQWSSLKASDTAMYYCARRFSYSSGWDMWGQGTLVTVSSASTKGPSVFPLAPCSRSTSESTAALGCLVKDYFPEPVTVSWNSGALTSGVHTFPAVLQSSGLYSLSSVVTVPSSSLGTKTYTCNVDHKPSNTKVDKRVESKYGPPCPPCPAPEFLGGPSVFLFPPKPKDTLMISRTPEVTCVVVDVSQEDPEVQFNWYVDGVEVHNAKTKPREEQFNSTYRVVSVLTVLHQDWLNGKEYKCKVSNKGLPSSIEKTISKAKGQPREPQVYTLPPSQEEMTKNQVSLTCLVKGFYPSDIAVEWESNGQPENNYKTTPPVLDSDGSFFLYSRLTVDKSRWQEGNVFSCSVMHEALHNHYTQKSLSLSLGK
light: SYELTQPPSVSVSPGQTARITCSGDALTSKYVAWYQQKSGLAPLLVIYEDTRRPSGIPAKFSGSSSGSVATLTISGAHGDDEADYYCYSTDASGHQRVFGGGTKLTVLSQPKAAPSVTLFPPSSEELQANKATLVCLISDFYPGAVTVAWKADGSPVKAGVETTKPSKQSNNKYAASSYLSLTPEQWKSHRSYSCQVTHEGSTVEKTVAPTECS
notes: pH-dependent anti-C2 antibody from a phage display library; also called WT
Work on B1 yielded a Fold diff (human C2 L620A) of 1 fold, a Fold diff (human C2 D431A) of 4 fold and a Fold diff (human C2 N703A) of 29 fold. It also gave a Fold diff (human C2 Q489A) of 10 fold.
